B2: Spo0B (enzyme, B. subtilis, UniProt P06535 1-192, looked up)
chain: MKDVSKNQEENISDTALTNELIHLLGHSRHDWMNKLQLIKGNLSLQKYDRVFEMIEEMVIDAKHESKLSNLKTPHLAFDFLTFNWKTHYMTLEYEVLGEIKDLSAYDQKLAKLMRKLFHLFDQAVSRESENHLTVSLQTDHPDRQLILYLDFHGAFADPSAFDDIRQNGYEDVDIMRFEITSHECLIEIGLD
notes: Spo0B, sporulation phosphotransferase of B. subtilis; Two protomers of Spo0B stand in the complex; the Spo0B dimer of PDB 1IXM was the search probe; also called phosphotransferase Spo0B; transferase; source: E. coli BL21 (DE3) pLysS, purified (HisTrap IMAC, TEV cleavage, reverse IMAC, Superdex 75 SEC); not shown: His6, N-terminal, cleaved

The series “Spo0B” concerns the target B2. Nature of the series: crystal structure; purified Spo0B and Spo0A-REC mixed at 1:1.1 equivalents with 10 mM MgCl2 in 20 mM Tris-HCl pH 8.0, 0.1 M NaCl; sitting-drop vapour diffusion at 293 K; two crystal forms, 2.1 and 3.5 Å. The settings on record: both partners purified.
Series [1] deals with the molecule itself. The series is described as above.

B1: Spo0A-REC (domain or fragment, B. subtilis, UniProt P06534 1-123, looked up)
chain: MEKIKVCVADDNRELVSLLSEYIEGQEDMEVIGVAYNGQECLSLFKEKDPDVLVLDIIMPHLDGLAVLERLRESDLKKQPNVIMLTAFGQEDVTKKAVDLGASYFILKPFDMENLVGHIRQVS
notes: PDB 1QMP (Spo0A receiver domain) was the search probe; also called Spo0A receiver domain; A3; source: E. coli BL21 (DE3) pLysS, purified (HisTrap IMAC, TEV cleavage, reverse IMAC, Superdex 75 SEC); not shown: His6, N-terminal, cleaved
As to B1, the “stoichiometry N” value with Spo0B is 1 RR per phosphotransferase chain (printed as 2:2).

With B2, the binding result in series [1] is “binds”.

For the origin of these results see paper doi:10.1101/2025.11.17.688798, “Engineering directional phosphoryl flow enables programmable signaling dynamics in bacteria” (bioRxiv, 2025).
